B1: EMD (parent)
chain: YQSKGYNDDYYEESYFTTRTYGEP

Variants of: B1
Assay: protein stability index of a GFP-peptide fusion (GPS, HEK-293T) (PSI 1-6); higher = more stable
Settings: c terminus: a fixed tail appended
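Also: lentivirally expressed fusions sorted by FACS into six bins by GFP to DsRed ratio, PSI derived from sequencing read proportions per bin multiplied by bin number.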

Row | Variant | protein stability index
1 | YQSKGYNDDYYEESFFTTRTYGEP [Y15F] | 1.69
2 | YQSKGYNDDYYEESLFTTRTYGEP [Y15L] | 2
3 | YQSKGYNDDYYEESRFTTRTYGEP [Y15R] | 2.75
4 | YQSKGYNDDYYEESTFTTRTYGEP [Y15T] | 2.8
5 | YQSKGYNDDYYEESGFTTRTYGEP [Y15G] | 2.96
6 | YQSKGYNDDYYEESSFTTRTYGEP [Y15S] | 2.96
7 | YQSKGYNDDYYEESVFTTRTYGEP [Y15V] | 2.62
8 | YQSKGYNDDYYEESEFTTRTYGEP [Y15E] | 3.41
9 | YQSKGYNDDYYEESHFTTRTYGEP [Y15H] | 2.9
10 | YQSKGYNDDYYEESPFTTRTYGEP [Y15P] | 2.35
11 | YQSKGYNDDYYEESDFTTRTYGEP [Y15D] | 3.64
12 | YQSKGYNDDYYEESIFTTRTYGEP [Y15I] | 2.11
13 | YQSKGYNDDYYEESNFTTRTYGEP [Y15N] | 3.06
14 | YQSKGYNDDYYEESCFTTRTYGEP [Y15C] | 2.37
15 | YQSKGYNDDYYEESAFTTRTYGEP [Y15A] | 2.92
16 | YQSKGYNDDYYEESMFTTRTYGEP [Y15M] | 2.42
17 | YQSKGYNDDYYEESWFTTRTYGEP [Y15W] | 2.24
18 | YQSKGYNDDYYEESQFTTRTYGEP [Y15Q] | 2.91
19 | YQSKGYNDDYYEPSYFTTRTYGEP [E13P] | 1.74
20 | YQSKGYNDDYYEASYFTTRTYGEP [E13A] | 1.95
21 | YQSKGYNDDYYEMSYFTTRTYGEP [E13M] | 2.68
22 | YQSKGYNDDYYELSYFTTRTYGEP [E13L] | 1.93
23 | YQSKGYNDDYYETSYFTTRTYGEP [E13T] | 2.29
24 | YQSKGYNDDYYECSYFTTRTYGEP [E13C] | 1.53

Row | Variant | protein stability index
25 | YQSKGYNDDYYEVSYFTTRTYGEP [E13V] | 1.71
26 | YQSKGYNDDYYESSYFTTRTYGEP [E13S] | 2.16
27 | YQSKGYNDDYYEFSYFTTRTYGEP [E13F] | 3.37
28 | YQSKGYNDDYYEKSYFTTRTYGEP [E13K] | 1.67
29 | YQSKGYNDDYYEDSYFTTRTYGEP [E13D] | 2.42
30 | YQSKGYNDDYYEYSYFTTRTYGEP [E13Y] | 1.91
31 | YQSKGYNDDYYEWSYFTTRTYGEP [E13W] | 1.83
32 | YQSKGYNDDYYENSYFTTRTYGEP [E13N] | 1.64
33 | YQSKGYNDDYYERSYFTTRTYGEP [E13R] | 1.82
34 | YQSKGYNDDYYEISYFTTRTYGEP [E13I] | 1.67
35 | YQSKGYNDDYYEQSYFTTRTYGEP [E13Q] | 1.87
36 | YQSKGYNDDYYEGSYFTTRTYGEP [E13G] | 2
37 | YQSKGYNDDYYEHSYFTTRTYGEP [E13H] | 1.47
38 | YQSKGYNDDYYEESYFTTRSYGEP [T20S] | 2.33
39 | YQSKGYNDDYYEESYFTTRHYGEP [T20H] | 2.1
40 | YQSKGYNDDYYEESYFTTRDYGEP [T20D] | 2.52
41 | YQSKGYNDDYYEESYFTTRNYGEP [T20N] | 2.53
42 | YQSKGYNDDYYEESYFTTRCYGEP [T20C] | 2.26
43 | YQSKGYNDDYYEESYFTTRAYGEP [T20A] | 2.15
44 | YQSKGYNDDYYEESYFTTRQYGEP [T20Q] | 1.86
45 | YQSKGYNDDYYEESYFTTRYYGEP [T20Y] | 1.44
46 | YQSKGYNDDYYEESYFTTRIYGEP [T20I] | 1.73
47 | YQSKGYNDDYYEESYFTTRRYGEP [T20R] | 2.1
48 | YQSKGYNDDYYEESYFTTREYGEP [T20E] | 2.52

Row | Variant | protein stability index
49 | YQSKGYNDDYYEESYFTTRWYGEP [T20W] | 1.46
50 | YQSKGYNDDYYEESYFTTRFYGEP [T20F] | 2.23
51 | YQSKGYNDDYYEESYFTTRLYGEP [T20L] | 2.4
52 | YQSKGYNDDYYEESYFTTRGYGEP [T20G] | 2.6
53 | YQSKGYNDDYYEESYFTTRPYGEP [T20P] | 2.17
54 | YQSKGYNDDYYEESYFTTRKYGEP [T20K] | 2.05
55 | YQSKGYNDDYYEESYFTTRMYGEP [T20M] | 2.29
56 | YQSKGYNDDYYEESYFTTRVYGEP [T20V] | 2.1
57 | YQSKGYNDDYYEESYFTRRTYGEP [T18R] | 2.79
58 | YQSKGYNDDYYEESYFTERTYGEP [T18E] | 2.44
59 | YQSKGYNDDYYEESYFTARTYGEP [T18A] | 2.31
60 | YQSKGYNDDYYEESYFTNRTYGEP [T18N] | 2.5
61 | YQSKGYNDDYYEESYFTFRTYGEP [T18F] | 1.39
62 | YQSKGYNDDYYEESYFTHRTYGEP [T18H] | 2.17
63 | YQSKGYNDDYYEESYFTDRTYGEP [T18D] | 2.46
64 | YQSKGYNDDYYEESYFTLRTYGEP [T18L] | 2.11
65 | YQSKGYNDDYYEESYFTVRTYGEP [T18V] | 1.95
66 | YQSKGYNDDYYEESYFTMRTYGEP [T18M] | 2.04
67 | YQSKGYNDDYYEESYFTYRTYGEP [T18Y] | 1.76
68 | YQSKGYNDDYYEESYFTCRTYGEP [T18C] | 2.08
69 | YQSKGYNDDYYEESYFTWRTYGEP [T18W] | 2.02
70 | YQSKGYNDDYYEESYFTKRTYGEP [T18K] | 2.65
71 | YQSKGYNDDYYEESYFTIRTYGEP [T18I] | 1.77
72 | YQSKGYNDDYYEESYFTQRTYGEP [T18Q] | 2.3

Row | Variant | protein stability index
73 | YQSKGYNDDYYEESYFTGRTYGEP [T18G] | 2.09
74 | YQSKGYNDDYYEESYFTPRTYGEP [T18P] | 1.88
75 | YQSKGYNDDYYEESYFTSRTYGEP [T18S] | 2.38
76 | YQSKGYNDDYYEESYFTTRTGGEP [Y21G] | 2.98
77 | YQSKGYNDDYYEESYFTTRTRGEP [Y21R] | 2.46
78 | YQSKGYNDDYYEESYFTTRTDGEP [Y21D] | 3.06
79 | YQSKGYNDDYYEESYFTTRTAGEP [Y21A] | 2.76
80 | YQSKGYNDDYYEESYFTTRTKGEP [Y21K] | 2.52
81 | YQSKGYNDDYYEESYFTTRTWGEP [Y21W] | 1.96
82 | YQSKGYNDDYYEESYFTTRTCGEP [Y21C] | 2.81
83 | YQSKGYNDDYYEESYFTTRTTGEP [Y21T] | 2.27
84 | YQSKGYNDDYYEESYFTTRTPGEP [Y21P] | 2.76
85 | YQSKGYNDDYYEESYFTTRTQGEP [Y21Q] | 2.53
86 | YQSKGYNDDYYEESYFTTRTNGEP [Y21N] | 2.68
87 | YQSKGYNDDYYEESYFTTRTEGEP [Y21E] | 3.18
88 | YQSKGYNDDYYEESYFTTRTIGEP [Y21I] | 2.39
89 | YQSKGYNDDYYEESYFTTRTVGEP [Y21V] | 2.93
90 | YQSKGYNDDYYEESYFTTRTHGEP [Y21H] | 2.86
91 | YQSKGYNDDYYEESYFTTRTSGEP [Y21S] | 2.77
92 | YQSKGYNDDYYEESYFTTRTMGEP [Y21M] | 2.97
93 | YQSKGYNDDYYEESYFTTRTFGEP [Y21F] | 2.02
94 | YQSKGYNDDYYEESYFTTRTLGEP [Y21L] | 2.32
